The target in the test is T1, His–PARP1, full length, recombinant (called GFP-PARP1 / PARP1–GFP in the results and legend) (UniProt P09874 1-1014).
T1 construct: PARP1, full length, cloned into NcoI and BamHI sites of pNIC28; The methods describe only His–PARP1 from pNIC28 with no GFP; Whether GFP was on the protein is open; It was held on PARP1-trap beads; also called pNIC28–PARP1; source: E. coli Rosetta (DE3), purified (HisTrap, SEC Superdex 200)
Put plainly: pull-down; PARP1 (2.5 µM) held on PARP1-trap beads, TEX264 (2.5 µM) added in 50 mM HEPES pH 7.4, 500 mM NaCl, 0.01% Triton X-100, 1 mM TCEP, 2 h at 4 °C; washes with 0.1% Triton X-100; western blot. Conditions: both partners purified.

T1 sequence (P09874 whole entry): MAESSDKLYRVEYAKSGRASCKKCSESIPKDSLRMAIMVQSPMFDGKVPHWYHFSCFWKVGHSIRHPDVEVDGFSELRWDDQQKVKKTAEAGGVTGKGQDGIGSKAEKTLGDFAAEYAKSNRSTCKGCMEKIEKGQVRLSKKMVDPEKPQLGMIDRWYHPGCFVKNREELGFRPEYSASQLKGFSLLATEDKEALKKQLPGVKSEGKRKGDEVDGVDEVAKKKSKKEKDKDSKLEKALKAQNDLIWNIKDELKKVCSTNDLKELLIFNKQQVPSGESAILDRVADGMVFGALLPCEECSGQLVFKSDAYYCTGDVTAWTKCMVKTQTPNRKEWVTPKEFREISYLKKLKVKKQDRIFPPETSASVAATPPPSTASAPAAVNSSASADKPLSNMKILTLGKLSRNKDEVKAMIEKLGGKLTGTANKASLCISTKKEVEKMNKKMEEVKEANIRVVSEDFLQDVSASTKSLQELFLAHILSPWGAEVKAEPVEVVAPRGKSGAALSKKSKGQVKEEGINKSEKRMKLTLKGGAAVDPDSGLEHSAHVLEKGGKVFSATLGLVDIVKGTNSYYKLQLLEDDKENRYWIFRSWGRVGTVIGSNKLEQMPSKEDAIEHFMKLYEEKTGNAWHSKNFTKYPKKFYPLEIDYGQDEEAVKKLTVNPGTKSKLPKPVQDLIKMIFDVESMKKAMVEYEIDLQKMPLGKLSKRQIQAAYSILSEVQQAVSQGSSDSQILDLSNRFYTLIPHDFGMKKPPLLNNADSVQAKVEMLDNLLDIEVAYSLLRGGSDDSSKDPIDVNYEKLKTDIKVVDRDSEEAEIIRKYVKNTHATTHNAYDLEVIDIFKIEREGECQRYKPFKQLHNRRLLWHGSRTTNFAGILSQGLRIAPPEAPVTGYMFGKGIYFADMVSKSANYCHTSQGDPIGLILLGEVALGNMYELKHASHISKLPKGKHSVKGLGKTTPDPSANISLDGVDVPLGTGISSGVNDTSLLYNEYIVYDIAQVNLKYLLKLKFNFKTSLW

B1: His–TEX264 (34-313) (domain or fragment, UniProt Q9Y6I9 34-313, looked up)
chain: VEVSAGSPPIRNVTVAYKFHMGLYGETGRLFTESCSISPKLRSIAVYYDNPHMVPPDKCRCAVGSILSEGEESPSPELIDLYQKFGFKVFSFPAPSHVVTATFPYTTILSIWLATRRVHPALDTYIKERKLCAYPRLEIYQEDQIHFMCPLARQGDFYVPEMKETEWKWRGLVEAIDTQVDGTGADTMSDTSSVSLEVSPGSRETSAATLSPGASSRGWDDGDTRSEHSYSESGASGSSFEELDLEGEGPLGESRLDPGTEPLGTTKWLWEPTAPEKGKE
notes: the printed UniProt entry Q9Y6I9 is the human protein; The longest recombinant TEX264 described in the methods; also called TEX264^WT (variant 1); source: E. coli Rosetta (DE3), pCold cold shock system, purified (HiTrap Q FF, SEC Superdex 200)
As to B1, the binding result is given as “binds”.

B2: His–TEX264–Cter (186-313) (domain or fragment, UniProt Q9Y6I9 186-313, looked up)
chain: RQGDFYVPEMKETEWKWRGLVEAIDTQVDGTGADTMSDTSSVSLEVSPGSRETSAATLSPGASSRGWDDGDTRSEHSYSESGASGSSFEELDLEGEGPLGESRLDPGTEPLGTTKWLWEPTAPEKGKE
notes: also called C-terminal half of TEX264; variant 2
Turning to B2, the binding result is reported as “binds”.

Source of the values: article PMC13278974, “Nucleophagy removes cytotoxic trapped PARP1” (Nature Cell Biology, 2026).
